Data taken from PMC12810954, “Targeted computational design of an interleukin-7 superkine with enhanced folding efficiency and immunotherapeutic efficacy” (eLife, 2026).

Molecular target: T1, recombinant murine IL-7 receptor alpha (mouse, UniProt P16872 21-239)
T1 construct: interleukin-7 receptor subunit alpha, mouse; Probably the extracellular domain (catalogue product); The SPR methods say only 'recombinant murine IL7Rα' without a supplier; also called IL7Rα; mIL-7Rα; source: bought: Sino Biological; not shown: polyhistidine, C-terminal, kept
T1 sequence (looked up): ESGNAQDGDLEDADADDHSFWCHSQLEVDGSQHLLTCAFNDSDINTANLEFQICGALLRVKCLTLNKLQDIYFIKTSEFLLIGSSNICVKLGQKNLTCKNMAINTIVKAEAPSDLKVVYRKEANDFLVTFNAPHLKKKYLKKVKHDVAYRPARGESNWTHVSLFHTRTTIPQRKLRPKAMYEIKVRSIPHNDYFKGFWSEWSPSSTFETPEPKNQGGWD
Experiment: SPR; murine IL7Rα immobilised on a CM5 chip by amine coupling (Rmax below 30); threefold serial dilutions of WT-IL7 and Neo-7 variants in HBS-EP+ at 50 µL/min, association 180 s, dissociation 600 s; Biacore T200
Details: both partners purified

B1: recombinant WT-IL7, E. coli expressed and refolded (ligand, human, UniProt P13232 26-177, looked up)
chain: DCDIEGKDGKQYESVLMVSIDQLLDSMKEIGSNCLNNEFNFFKRHICDANKEGMFLFRAARKLRQFLKMNSTGDFDLHLLKVSEGTTILLNCTGQVKGRKPAALGEAQPTKSLEENKSLKEQKKLNDLCFLKRLLQEIKTCWNKILMGTKEH
notes: interleukin-7, human, wild type; The methods say only that a similar procedure as for Neo-7 was used
- Kd: 13.4 nM
- koff: 0.0784 s⁻¹
- kon: 5.86e+06 M⁻¹ s⁻¹
